{
  "source": "paper PMC3187862",
  "binders": {"B1": {"name": "F3 (dsDNA)", "DNA 1": "AGAGGCAGCCGGATATCGGTGACATGATCGTTTGGCGAGCGATTTC", "DNA 2": "GAAATCGCTCGCCAAACGATCATGTCACCGATATCCGGCTGCCTCT"}},
  "biological_target": "T1, DoeX (AsnC/Lrp family) (Halomonas elongata DSM 2581T, UniProt E1V7V9 1-158)",
  "T1 sequence": "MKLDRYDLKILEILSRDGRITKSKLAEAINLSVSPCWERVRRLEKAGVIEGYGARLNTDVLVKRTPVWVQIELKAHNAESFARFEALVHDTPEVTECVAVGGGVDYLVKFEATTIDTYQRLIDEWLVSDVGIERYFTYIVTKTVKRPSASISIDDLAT",
  "test": "EMSA",
  "data": [
    {"binder": "B1", "values": [
      {"measurement": "binding result", "value": "binds"}
    ]}
  ]
}
